# What was measured:
# [1] = target: Human FcγRIIB (human) (UniProt P31994)
# [2] = target: Human FcγRI (human) (UniProt P12314)
# [3] = target: Human FcγRIIA (human) (UniProt P12318)
# [4] = target: Human FcRn (human) (UniProt P55899)
# [5] = target: Human FcγRIIIA-F158 (human) (UniProt P08637)
# [6] = target: Human FcγRIIIB (human) (UniProt O75015)
substance,measurement,setting,value
control IgG (7101+7103) (antibody),kon,[1],124000 M⁻¹ s⁻¹
same,kon,[2],289000 M⁻¹ s⁻¹
same,kon,[3],300000 M⁻¹ s⁻¹
same,kon,[4],1.98e+06 M⁻¹ s⁻¹
same,kon,[5],880000 M⁻¹ s⁻¹
same,kon,[6],128000 M⁻¹ s⁻¹
